The supplement of paper PMC7877785
± gives the uncertainty stated by the source.

Experiment: self-splicing fitness, log relative to wild type (ln ratio); higher = more splicing; Tetrahymena group I intron in knt gene, E. coli kanamycin selection, DiMSum; sequences stand for … in CUCUCU…GGAGGGAAAAGUUAUCAGGCAUGCACCUGGUAGCUAGUCUUUAAACCAAUAGAUUGCAUCGGUUUAAAAGGCAAGACCGUCAAAUUGCGGGAAAGGGGUCAACAGCCGUUCAGUACCAAGUCUCAGGGGAAACUUUGAGAUGGCCUUGCAAAGGGUAUGGUAAUAAGCUGACGGACAUGGUCCUAACCACGCAGCCAAGUCCUAAGUCAACAGAUCUUCUGUUGAUAUGGAUGCAGUUCACAGACUAAAUGUCGGUCGGGGAAGAUGUAUUCUUCUCAUAAGAUAUAGUCGGACCUCUCCUUAAUGGGAGCUAGCGGAUGAAGUGAUGCAACACUGGAGCCGCUGGGAACUAAUUUGUAUGCGAAAGUAUAUUGAUUAGUUUUGGAGUACUCGUGGUCG
How it was run: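 DiMSum derived fitness as the error-weighted combination of fold changes across replicates, kanamycin versus no kanamycin, normalised to wild type. E. coli BL21(DE3) held the library, which randomised all eight P1ex-region intron nucleotides within the knt kanamycin-resistance gene on pET-22b(+). Six replicate transformations grew overnight at 37°C or 30°C on LB agar with or without 25 μg/mL kanamycin, also containing 100 μg/mL carbenicillin, 50 μM IPTG and 0.2% rhamnose, and pooled colonies were amplicon-sequenced on an Illumina HiSeq 2500.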

Row | Sequence | self-splicing fitness (ln) (30 °C) | self-splicing fitness (ln) (37 °C)
1 | AGUCAGCAAUAUUACGAUGG | -1.55 ± 0.062 | -0.364 ± 0.083
2 | AGUCAGCAAUAUUACGCCGU | -1.26 ± 0.15 | -0.55 ± 0.21
3 | AGUCAGCAAUAUUACGCGGC | -3.02 ± 0.29 | –
4 | AGUCAGCAAUAUUACGGAAG | -3.36 ± 0.17 | -1.67 ± 0.16
5 | AGUCAGCAAUAUUACGGCGA | -0.359 ± 0.091 | 0.00759 ± 0.14
6 | AGUCAGCAAUAUUACGGGCG | -0.963 ± 0.093 | 0.189 ± 0.13
7 | AGUCAGCAAUAUUACGGGGA | -3.08 ± 0.19 | -1.42 ± 0.18
8 | AGUCAGCAAUAUUACGGUGA | -1.87 ± 0.12 | -0.192 ± 0.096
9 | AGUCAGCAAUAUUACGUACA | -0.657 ± 0.074 | 0.284 ± 0.11
10 | AGUCAGCAAUAUUACGUGAC | -2.96 ± 0.24 | -2.86 ± 0.2
11 | AGUCAGCAAUAUUACGUGCA | -0.269 ± 0.073 | -0.501 ± 0.099
12 | AGUCAGCAAUAUUACGUGUA | -3.11 ± 0.14 | -0.76 ± 0.086
13 | AGUCAGCAAUAUUACGUUGG | -2.9 ± 0.17 | -1.83 ± 0.18
14 | AGUGAGCAAUAUUACGAAGU | -2.49 ± 0.26 | 0.907 ± 0.22
15 | AGUGAGCAAUAUUACGACGG | -3.25 ± 0.28 | -0.814 ± 0.22
16 | AGUGAGCAAUAUUACGAGCA | -0.561 ± 0.11 | -0.436 ± 0.11
17 | AGUGAGCAAUAUUACGAUUA | -2.67 ± 0.3 | -1.47 ± 0.37
18 | AGUGAGCAAUAUUACGCCAG | – | -2.12 ± 0.45
19 | AGUGAGCAAUAUUACGCGAG | -2.91 ± 0.49 | –
20 | AGUGAGCAAUAUUACGCGCC | -2.21 ± 0.23 | –
21 | AGUGAGCAAUAUUACGGAAC | -2.5 ± 0.43 | –
22 | AGUGAGCAAUAUUACGGACU | -1.28 ± 0.12 | -0.761 ± 0.13
23 | AGUGAGCAAUAUUACGUAUC | -3.05 ± 0.34 | –
24 | AGUGAGCAAUAUUACGUCCG | – | -0.894 ± 0.22
25 | AGUGAGCAAUAUUACGUCGG | -3.07 ± 0.31 | -1.97 ± 0.36

Row | Sequence | self-splicing fitness (ln) (30 °C) | self-splicing fitness (ln) (37 °C)
26 | AGUGAGCAAUAUUACGUCUU | -1.07 ± 0.082 | -1.31 ± 0.1
27 | AGUGAGCAAUAUUACGUGAG | -3.58 ± 0.31 | -0.839 ± 0.19
28 | AGUGAGCAAUAUUACGUGCU | -1.86 ± 0.28 | –
29 | AGUGAGCAAUAUUACGUGGA | -2.63 ± 0.32 | -1.49 ± 0.28
30 | AGUGAGCAAUAUUACGUGUA | -3.6 ± 0.28 | -2.84 ± 0.23
31 | AGUGAGCAAUAUUACGUUAG | -2.97 ± 0.19 | -2.03 ± 0.17
32 | AGUGAGCAAUAUUACGUUCG | -3.26 ± 0.16 | -2.22 ± 0.14
33 | AGUGAGCAAUAUUACGUUUU | -3.26 ± 0.14 | -2.57 ± 0.15
34 | AGUUAGCAAUAUUACGAAGA | -1.18 ± 0.4 | -2.26 ± 0.34
35 | AGUUAGCAAUAUUACGAAUA | -1.43 ± 0.14 | -0.681 ± 0.21
36 | AGUUAGCAAUAUUACGAAUG | -2.33 ± 0.16 | -1.56 ± 0.17
37 | AGUUAGCAAUAUUACGAGAU | -2.15 ± 0.18 | -1.17 ± 0.16
38 | AGUUAGCAAUAUUACGAGCC | -1.84 ± 0.13 | -1.12 ± 0.13
39 | AGUUAGCAAUAUUACGAUGG | -2.45 ± 0.17 | -1.51 ± 0.19
40 | AGUUAGCAAUAUUACGAUUA | – | -0.435 ± 0.33
41 | AGUUAGCAAUAUUACGAUUG | -3.3 ± 0.27 | -1.84 ± 0.24
42 | AGUUAGCAAUAUUACGCAAC | -2.75 ± 0.24 | -3.1 ± 0.37
43 | AGUUAGCAAUAUUACGCAAG | -2.63 ± 0.12 | -1.24 ± 0.13
44 | AGUUAGCAAUAUUACGCAUC | -3.63 ± 0.43 | -1.68 ± 0.23
45 | AGUUAGCAAUAUUACGCCAA | – | -1.58 ± 0.43
46 | AGUUAGCAAUAUUACGCGAG | -2.52 ± 0.22 | -1.52 ± 0.21
47 | AGUUAGCAAUAUUACGCUUA | -1.3 ± 0.15 | -0.343 ± 0.16
48 | AGUUAGCAAUAUUACGGAAA | -2.89 ± 0.35 | -2.55 ± 0.44
49 | AGUUAGCAAUAUUACGGAAU | -3.73 ± 0.46 | -2 ± 0.43
50 | AGUUAGCAAUAUUACGGCGA | 0.115 ± 0.16 | 0.709 ± 0.16

Row | Sequence | self-splicing fitness (ln) (30 °C) | self-splicing fitness (ln) (37 °C)
51 | AGUUAGCAAUAUUACGGCGG | -0.53 ± 0.085 | -0.514 ± 0.13
52 | AGUUAGCAAUAUUACGGCUU | -2.22 ± 0.23 | -1.04 ± 0.22
53 | AGUUAGCAAUAUUACGGGCA | -0.103 ± 0.13 | -0.162 ± 0.15
54 | AGUUAGCAAUAUUACGGUAA | -2.21 ± 0.17 | -1.53 ± 0.12
55 | AGUUAGCAAUAUUACGGUGG | -1.16 ± 0.18 | -2.42 ± 0.27
56 | AGUUAGCAAUAUUACGUACC | -0.585 ± 0.24 | -0.376 ± 0.28
57 | AGUUAGCAAUAUUACGUGUC | -2.09 ± 0.33 | -1.42 ± 0.36
58 | AUAAAGCAAUAUUACGAAUA | -0.578 ± 0.14 | -0.302 ± 0.26
59 | AUAAAGCAAUAUUACGAGAG | -2.29 ± 0.18 | -1.03 ± 0.15
60 | AUAAAGCAAUAUUACGAGGA | -3.28 ± 0.23 | -1.74 ± 0.19
61 | AUAAAGCAAUAUUACGAGUU | -1.9 ± 0.081 | -0.509 ± 0.085
62 | AUAAAGCAAUAUUACGAUCA | 0.0672 ± 0.054 | 0.203 ± 0.077
63 | AUAAAGCAAUAUUACGAUCU | 0.387 ± 0.11 | 0.308 ± 0.097
64 | AUAAAGCAAUAUUACGAUUC | -0.837 ± 0.085 | -0.228 ± 0.097
65 | AUAAAGCAAUAUUACGCCUC | -0.875 ± 0.14 | -0.532 ± 0.2
66 | AUAAAGCAAUAUUACGCGCG | -0.354 ± 0.09 | 0.713 ± 0.12
67 | AUAAAGCAAUAUUACGCUAC | -3.14 ± 0.25 | -2.99 ± 0.33
68 | AUAAAGCAAUAUUACGGGAA | -1.08 ± 0.097 | -0.426 ± 0.14
69 | AUAAAGCAAUAUUACGUAAC | -1.92 ± 0.13 | -0.901 ± 0.17
70 | AUAAAGCAAUAUUACGUAUU | -2.73 ± 0.12 | -1.79 ± 0.13
71 | AUAAAGCAAUAUUACGUCUC | -1.4 ± 0.093 | -0.541 ± 0.13
72 | AUAAAGCAAUAUUACGUCUU | 0.183 ± 0.05 | 0.29 ± 0.073
73 | AUAAAGCAAUAUUACGUUCG | -0.321 ± 0.085 | 0.17 ± 0.13
74 | AUAAAGCAAUAUUACGUUGA | -2.1 ± 0.095 | -1.77 ± 0.13
75 | AUACAGCAAUAUUACGAACG | -0.79 ± 0.12 | -1.44 ± 0.17

Row | Sequence | self-splicing fitness (ln) (30 °C) | self-splicing fitness (ln) (37 °C)
76 | AUACAGCAAUAUUACGAAUU | -2.71 ± 0.15 | -1.16 ± 0.14
77 | AUACAGCAAUAUUACGACCC | -1.1 ± 0.21 | -0.179 ± 0.17
78 | AUACAGCAAUAUUACGAGUC | -3.23 ± 0.19 | -2.57 ± 0.19
79 | AUACAGCAAUAUUACGAUUU | -0.0463 ± 0.053 | 0.498 ± 0.073
80 | AUACAGCAAUAUUACGCACA | -0.789 ± 0.11 | 0.62 ± 0.12
81 | AUACAGCAAUAUUACGCAUG | -1.44 ± 0.094 | -0.421 ± 0.12
82 | AUACAGCAAUAUUACGCCCU | -0.0578 ± 0.06 | -0.247 ± 0.072
83 | AUACAGCAAUAUUACGCCGA | -1.98 ± 0.18 | -1.51 ± 0.19
84 | AUACAGCAAUAUUACGCCGU | -1.34 ± 0.099 | -0.0561 ± 0.1
85 | AUACAGCAAUAUUACGCUAG | -1.61 ± 0.079 | -1.23 ± 0.096
86 | AUACAGCAAUAUUACGCUCC | -1.47 ± 0.16 | -0.769 ± 0.21
87 | AUACAGCAAUAUUACGGGCA | -0.996 ± 0.099 | -0.765 ± 0.1
88 | AUACAGCAAUAUUACGGUGA | -0.847 ± 0.063 | 0.283 ± 0.077
89 | AUACAGCAAUAUUACGGUUU | -0.703 ± 0.048 | 0.226 ± 0.059
90 | AUACAGCAAUAUUACGUAAU | -1.43 ± 0.085 | -0.584 ± 0.12
91 | AUACAGCAAUAUUACGUAUC | -4.19 ± 0.21 | -2.6 ± 0.17
92 | AUACAGCAAUAUUACGUGAA | -2.19 ± 0.077 | -1.08 ± 0.076
93 | AUACAGCAAUAUUACGUGCG | -0.886 ± 0.081 | -0.3 ± 0.091
94 | AUACAGCAAUAUUACGUGGC | -3.22 ± 0.12 | -2.39 ± 0.15
95 | AUAGAGCAAUAUUACGAACG | -2.4 ± 0.21 | -0.83 ± 0.19
96 | AUAGAGCAAUAUUACGAACU | -0.774 ± 0.13 | 0.227 ± 0.18
97 | AUAGAGCAAUAUUACGAAUA | -4.03 ± 0.47 | -2.1 ± 0.29
98 | AUAGAGCAAUAUUACGACGA | -0.935 ± 0.093 | -0.479 ± 0.13
